{
  "source": "patent US7144731B2",
  "about": "“SCF antibody compositions and methods of using the same” (Amgen Inc., priority 1989, dated 2006)",
  "test_system": "COS-1 cells (endogenous c-kit)",
  "assay": "^125I-SCF^1-164 binding to COS-1 cells transfected with V19.8 alone",
  "excerpt": "To test whether SCF^1-164 is the ligand for c-kit, the cDNA for the entire murine c-kit [Qiu et al., EMBO J., 7, 1003–1011 (1988)] was amplified using PCR from the SCF^1-164 responsive mast cell line MC/9 [Nabel et al., Nature, 291, 332–334 (1981)] with primers designed from the published sequence. The ligand binding and transmembrane domains of human c-kit, encoded by amino acids 1–549 [Yarden et al., EMBO J., 6, 3341–3351 (1987)], were cloned using similar techniques from the human erythroleukemia cell line, HEL [Martin and Papayannopoulou, Science, 216, 1233–1235 (1982)]. The c-kit cDNAs were inserted into the mammalian expression vector V19.8 transfected into COS-1 cells, and membrane fractions prepared for binding assays using either rat or human ^125I-SCF^1-164 according to the methods described in Sections B and C below. […] There was no detectable specific binding of ^125I human SCF^1-164 to COS-1 cells transfected with V19.8 alone. However, COS-1 cells expressing human recombinant c-kit ligand binding plus transmembrane domains (hckit-LT1) did bind ^125I-hSCF^1-164 (Table 17). The addition of a 200 fold molar excess of unlabelled human SCF^1-164 reduced binding to background levels. […]\nTwo days after transfection, the COS-1 cells were scraped from the dish, washed in PBS, and frozen until use. […] The pellets were clipped off and membrane associated ^125I-SCF^1-164 was quantitated.",
  "data": [
    {"molecule": "rrSCF^1-164: recombinant rat SCF^1-164 from E. coli, also used ^125I-labelled (protein) QEICRNPVTDNVKDITKLVANLPNDYMITLNYVAGMDVLPSHCWLRDMVTHLSVSLTTLLDKFSNISEGLSNYSIIDKLGKIVDDLVACMEENAPKNVKESLKKPETRNFTPEEFFSIFNRSIDAFKDFMVASDTSDCVLSSTLGPEKDSRVSVTKPFMLPPVA", "values": [
      {"measurement": "CPM Bound, ^125I-SCF + cold", "setting": "1.6 nM ^125I-SCF^1-164 + 320 nM unlabelled SCF^1-164, V19.8", "value": 550, "unit": "CPM"},
      {"measurement": "CPM Bound, ^125I-SCF", "setting": "1.6 nM ^125I-SCF^1-164, plasmid V19.8", "value": "1,100 CPM"}
    ]}
  ]
}
